Experimental data taken from patent publication US11466286B2, “Methods and compositions for conferring and/or enhancing herbicide tolerance using protoporphyrinogen oxidase or variant thereof” (FarmHannong Co., Ltd., priority 2016, dated 2022).

B1: CyPPO13 A177L + F373T: CyPPO13 (SEQ ID NO: 4) PPO variant (protein)
chain: MNPATPEPLNAEVVVIGAGISGLTLAWRLQQGLSARGGSPQAVLLAEASSRVGGCISTQSKDGYRWEEGPNSFTPTPALLNLIAEVGLTDQLVLADAKLPRYIYWEGALLPVPLSPAAALGSRLLSVGGKLRALQGLLGFVPPPPGHEETVRQFFRRQLGSEVAERLVEPFTSGVYLGDPDQLSAVAAFPRVAGLEERYGSLFAGALQALRQRPQPSPAAIQPPPKRGQLGNLRQGLQQLPEALAQKLGDSLRLGWRALQLKRAGELYWVGFETPEGSRWVAARQVVLALPAYEAAALLQELNPPASQLLAEILYPPVAVVALAYPQEALPQPLRGFGHLIPRSQGLRTLGTIWASCLFPERAPQGYHSFLSTLGGATDAALARRRGIPPIPALSPEERAQIAHAELSQVLLTRRAEPVYLGERLWPRAIPQYTLGHRQRIAQVQAHLASQTPGIWVCANYLDGVALGDCVRRAEALAQQLLSQV
modifications: Synthetic CyPPO13
B2: CyPPO13 G194E + F373M: CyPPO13 (SEQ ID NO: 4) PPO variant (protein)
chain: MNPATPEPLNAEVVVIGAGISGLTLAWRLQQGLSARGGSPQAVLLAEASSRVGGCISTQSKDGYRWEEGPNSFTPTPALLNLIAEVGLTDQLVLADAKLPRYIYWEGALLPVPLSPAAALGSRLLSVGGKLRALQGLLGFVPPPPGHEETVRQFFRRQLGSEVAERLVEPFTSGVYAGDPDQLSAVAAFPRVAELEERYGSLFAGALQALRQRPQPSPAAIQPPPKRGQLGNLRQGLQQLPEALAQKLGDSLRLGWRALQLKRAGELYWVGFETPEGSRWVAARQVVLALPAYEAAALLQELNPPASQLLAEILYPPVAVVALAYPQEALPQPLRGFGHLIPRSQGLRTLGTIWASCLFPERAPQGYHSFLSMLGGATDAALARRRGIPPIPALSPEERAQIAHAELSQVLLTRRAEPVYLGERLWPRAIPQYTLGHRQRIAQVQAHLASQTPGIWVCANYLDGVALGDCVRRAEALAQQLLSQV
modifications: Synthetic CyPPO13
B3: CyPPO13 A177C + F373T: CyPPO13 (SEQ ID NO: 4) PPO variant (protein)
chain: MNPATPEPLNAEVVVIGAGISGLTLAWRLQQGLSARGGSPQAVLLAEASSRVGGCISTQSKDGYRWEEGPNSFTPTPALLNLIAEVGLTDQLVLADAKLPRYIYWEGALLPVPLSPAAALGSRLLSVGGKLRALQGLLGFVPPPPGHEETVRQFFRRQLGSEVAERLVEPFTSGVYCGDPDQLSAVAAFPRVAGLEERYGSLFAGALQALRQRPQPSPAAIQPPPKRGQLGNLRQGLQQLPEALAQKLGDSLRLGWRALQLKRAGELYWVGFETPEGSRWVAARQVVLALPAYEAAALLQELNPPASQLLAEILYPPVAVVALAYPQEALPQPLRGFGHLIPRSQGLRTLGTIWASCLFPERAPQGYHSFLSTLGGATDAALARRRGIPPIPALSPEERAQIAHAELSQVLLTRRAEPVYLGERLWPRAIPQYTLGHRQRIAQVQAHLASQTPGIWVCANYLDGVALGDCVRRAEALAQQLLSQV
modifications: Synthetic CyPPO13
B4: CyPPO13 G194M + F373M: CyPPO13 (SEQ ID NO: 4) PPO variant (protein)
chain: MNPATPEPLNAEVVVIGAGISGLTLAWRLQQGLSARGGSPQAVLLAEASSRVGGCISTQSKDGYRWEEGPNSFTPTPALLNLIAEVGLTDQLVLADAKLPRYIYWEGALLPVPLSPAAALGSRLLSVGGKLRALQGLLGFVPPPPGHEETVRQFFRRQLGSEVAERLVEPFTSGVYAGDPDQLSAVAAFPRVAMLEERYGSLFAGALQALRQRPQPSPAAIQPPPKRGQLGNLRQGLQQLPEALAQKLGDSLRLGWRALQLKRAGELYWVGFETPEGSRWVAARQVVLALPAYEAAALLQELNPPASQLLAEILYPPVAVVALAYPQEALPQPLRGFGHLIPRSQGLRTLGTIWASCLFPERAPQGYHSFLSMLGGATDAALARRRGIPPIPALSPEERAQIAHAELSQVLLTRRAEPVYLGERLWPRAIPQYTLGHRQRIAQVQAHLASQTPGIWVCANYLDGVALGDCVRRAEALAQQLLSQV
modifications: Synthetic CyPPO13
B5: CyPPO13 A177L + F373V: CyPPO13 (SEQ ID NO: 4) PPO variant (protein)
chain: MNPATPEPLNAEVVVIGAGISGLTLAWRLQQGLSARGGSPQAVLLAEASSRVGGCISTQSKDGYRWEEGPNSFTPTPALLNLIAEVGLTDQLVLADAKLPRYIYWEGALLPVPLSPAAALGSRLLSVGGKLRALQGLLGFVPPPPGHEETVRQFFRRQLGSEVAERLVEPFTSGVYLGDPDQLSAVAAFPRVAGLEERYGSLFAGALQALRQRPQPSPAAIQPPPKRGQLGNLRQGLQQLPEALAQKLGDSLRLGWRALQLKRAGELYWVGFETPEGSRWVAARQVVLALPAYEAAALLQELNPPASQLLAEILYPPVAVVALAYPQEALPQPLRGFGHLIPRSQGLRTLGTIWASCLFPERAPQGYHSFLSVLGGATDAALARRRGIPPIPALSPEERAQIAHAELSQVLLTRRAEPVYLGERLWPRAIPQYTLGHRQRIAQVQAHLASQTPGIWVCANYLDGVALGDCVRRAEALAQQLLSQV
modifications: Synthetic CyPPO13
B6: CyPPO13 G194Q + F373M: CyPPO13 (SEQ ID NO: 4) PPO variant (protein)
chain: MNPATPEPLNAEVVVIGAGISGLTLAWRLQQGLSARGGSPQAVLLAEASSRVGGCISTQSKDGYRWEEGPNSFTPTPALLNLIAEVGLTDQLVLADAKLPRYIYWEGALLPVPLSPAAALGSRLLSVGGKLRALQGLLGFVPPPPGHEETVRQFFRRQLGSEVAERLVEPFTSGVYAGDPDQLSAVAAFPRVAQLEERYGSLFAGALQALRQRPQPSPAAIQPPPKRGQLGNLRQGLQQLPEALAQKLGDSLRLGWRALQLKRAGELYWVGFETPEGSRWVAARQVVLALPAYEAAALLQELNPPASQLLAEILYPPVAVVALAYPQEALPQPLRGFGHLIPRSQGLRTLGTIWASCLFPERAPQGYHSFLSMLGGATDAALARRRGIPPIPALSPEERAQIAHAELSQVLLTRRAEPVYLGERLWPRAIPQYTLGHRQRIAQVQAHLASQTPGIWVCANYLDGVALGDCVRRAEALAQQLLSQV
modifications: Synthetic CyPPO13
B7: CyPPO13 G194K + F373M: CyPPO13 (SEQ ID NO: 4) PPO variant (protein)
chain: MNPATPEPLNAEVVVIGAGISGLTLAWRLQQGLSARGGSPQAVLLAEASSRVGGCISTQSKDGYRWEEGPNSFTPTPALLNLIAEVGLTDQLVLADAKLPRYIYWEGALLPVPLSPAAALGSRLLSVGGKLRALQGLLGFVPPPPGHEETVRQFFRRQLGSEVAERLVEPFTSGVYAGDPDQLSAVAAFPRVAKLEERYGSLFAGALQALRQRPQPSPAAIQPPPKRGQLGNLRQGLQQLPEALAQKLGDSLRLGWRALQLKRAGELYWVGFETPEGSRWVAARQVVLALPAYEAAALLQELNPPASQLLAEILYPPVAVVALAYPQEALPQPLRGFGHLIPRSQGLRTLGTIWASCLFPERAPQGYHSFLSMLGGATDAALARRRGIPPIPALSPEERAQIAHAELSQVLLTRRAEPVYLGERLWPRAIPQYTLGHRQRIAQVQAHLASQTPGIWVCANYLDGVALGDCVRRAEALAQQLLSQV
modifications: Synthetic CyPPO13
B8: CyPPO13 A177C + F373V: CyPPO13 (SEQ ID NO: 4) PPO variant (protein)
chain: MNPATPEPLNAEVVVIGAGISGLTLAWRLQQGLSARGGSPQAVLLAEASSRVGGCISTQSKDGYRWEEGPNSFTPTPALLNLIAEVGLTDQLVLADAKLPRYIYWEGALLPVPLSPAAALGSRLLSVGGKLRALQGLLGFVPPPPGHEETVRQFFRRQLGSEVAERLVEPFTSGVYCGDPDQLSAVAAFPRVAGLEERYGSLFAGALQALRQRPQPSPAAIQPPPKRGQLGNLRQGLQQLPEALAQKLGDSLRLGWRALQLKRAGELYWVGFETPEGSRWVAARQVVLALPAYEAAALLQELNPPASQLLAEILYPPVAVVALAYPQEALPQPLRGFGHLIPRSQGLRTLGTIWASCLFPERAPQGYHSFLSVLGGATDAALARRRGIPPIPALSPEERAQIAHAELSQVLLTRRAEPVYLGERLWPRAIPQYTLGHRQRIAQVQAHLASQTPGIWVCANYLDGVALGDCVRRAEALAQQLLSQV
modifications: Synthetic CyPPO13

What follows are molecules tested on CyPPO13 (assay: PPO enzyme activity and IC50 by herbicides, CyPPO13 wild type and variants (MBP-PPO fusion)). Details: PPO enzyme activity of CyPPO13 protein, wild type = 100.
Type: biochemical, Synechococcus sp. JA-3-3Ab
Method: The enzyme activities of PPO protein and PPO protein variants were examined, and inhibition assay by PPO-inhibiting herbicides was conducted. It was confirmed that the PPO protein has low water-solubility, but in case of being expressed as a fusion protein with MBP (maltose binding protein) (MBP-PPO), the PPO protein is able to be stably expressed as water-soluble form. Therefore, the wild type and variant proteins which were expressed in the form of fusion protein with MBP were used in the present test (refer to FIG. 4).
In order to express wild type genes and mutant genes of CyPPO10 and CyPPO13 (refer to Example 1 and Example 4), those genes were introduced to pMAL-c2X vector (refer to FIG. 5) respectively, and then cloned to BL21 (DE3) E. coli (CodonPlus).
The enzyme activity of the purified wild type protein and variant proteins of CyPPO10 and CyPPO13 was measured by the following process.
At first, a substrate of PPO protein, Protoporphyrinogen IX was synthesized. This process was performed in the space where nitrogen gas is streamed. 6 mg of protoporphyrin IX was dissolved in 20% (v/v) EtOH 20 ml, and stirred under dark condition for 30 minutes. The obtained protoporphyrinogen IX solution was put into a 15 ml screw tube in an amount of 800 and flushed with nitrogen gas for 5 minutes. To this, 1 g of sodium amalgam was added and vigorous shaking was performed for 2 minutes. The lid was open to exhaust hydrogen gas in the tube. Thereafter, the lid was closed and incubated for 3 minutes. The […] was filtered using syringe and cellulose membrane filter. To 600 μl of the obtained […], 2M MOPS [3-(N-morpholino)propanesulfonic acid] was added in an amount of approximately 300 thereby adjusting pH to 8.0. To determine the enzyme activity of PPO protein, a reaction mixture was prepared with the following composition (based on 10 ml): 50 mM Tris-Cl (pH 8.0); 50 mM NaCl; 0.04% (v/v) Tween 20; 40 mM glucose (0.072 g); 5 units glucose oxidase (16.6 mg); and 10 units catalase (1 μl).
Two hundred microliters (200 μl) of reaction mixture containing a purified PPO protein were placed in 96 well plates, and preincubated for 30 min at room temperature to reduce the oxygen concentration by the reaction of glucose oxidase-catalase. The mineral oil was layered and then the reaction was initiated by adding the substrate, […], to a final concentration of 50 μM. The reaction proceeded at room temperature for 30 min and the fluorescence of protoporphyrin IX was measured using Microplate reader (Sense, Hidex) (excitation: 405 nm; emission: 633 nm). To calculate the PPO enzyme activity, protoporphyrinogen IX solution was kept open in the air to oxidize the solution (overnight). To this, 2.7N HCl was added, and the absorbance at 408 nm was measured. A standard curve was generated using standard protoporphyrin IX, and the PPO activity was measured by calibration of protoporphyrin IX using the standard curve of protoporphyrin IX.
The final concentration of each herbicide was as follows: […]

First: B1
Second: B2
The “Activity (%)” value of the first is higher: 62% for the first, 32% for the second.

Compared with B3, B4 is lower in “Activity (%)” value: 80% for the first, 43% for the second.

First: B5
Second: B6
The “Activity (%)” value of the first is higher: 49% for the first, 37% for the second.

First: B7
Second: B8
The “Activity (%)” value of the first is lower: 41% for the first, 56% for the second.
